Eight substances from the supplement of paper PMC5998384 can be followed below.

The test system of data set [1] is HeLa Kyoto. As to the kind of experiment: solubility change mitosis vs G1/S (difference of NP-40 vs SDS log2 ratios) (log2 ratio difference); higher = more soluble in mitosis.
In data set [2] the test system is HeLa Kyoto. Nature of the data set: melting temperature (median over replicates), in situ; higher = more thermally stable.
Data set [3] relates to HeLa Kyoto. Nature of the data set: thermal stability score vs G1/S (z-score of summed log2 fold changes over temperatures); higher = more thermally stable than in G1/S.
Data set [4] has as its system HeLa Kyoto. As to the kind of experiment: solubility in G1/S (NP-40 vs SDS abundance) (log2 ratio); higher = more soluble. Particulars: cell cycle stage: G1/S.
Where [5] appears, read: cell cycle stage: early G1 (4.5 h after nocodazole release).
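Throughout, for melting temperature (median over replicates), in situ: HeLa Kyoto cells synchronized by double thymidine or nocodazole block, proteins quantified by TMT10plex mass spectrometry, three independent biological replicates.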
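Throughout, for solubility change mitosis vs G1/S (difference of NP-40 vs SDS log2 ratios): synchronized HeLa Kyoto cells (double thymidine block for G1/S, nocodazole release for mitosis), protein amounts in NP-40 versus SDS lysates quantified by mass spectrometry, three biological replicates.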
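Throughout, for solubility in G1/S (NP-40 vs SDS abundance): HeLa Kyoto cells arrested at G1/S by double thymidine block, proteins quantified by TMT10plex mass spectrometry in mild NP-40 versus SDS extracts, three biological replicates.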
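Throughout, for thermal stability score vs G1/S (z-score of summed log2 fold changes over temperatures): synchronized HeLa Kyoto cells, proteins quantified by TMT10plex mass spectrometry, three biological replicates, mitosis taken 0.5 h after nocodazole release, G1/S directly after double thymidine block.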

With “MATLRRLREAPRHLLVCEKSNFGNHKSRHRHLVQTHYYNYRVSFLIPECGILSEELKNLVMNTGPYYFVKNLPLHELITPEFISTFIKKGSCYALTYNTHIDEDNTVALLPNGKLILSLDKDTYEETGLQGHPSQFSGRKIMKFIVSIDLMELSLNLDSKKYERISWSFKEKKPLKFDFLLAWHKTGSEESTMMSYFSKYQIQEHQPKVALSTLRDLQCPVLQSSELEGTPEVSCRALELFDWLGAVFSNVDLNNEPNNFISTYCCPEPSTVVAKAYLCTITGFILPEKICLLLEHLCHYFDEPKLAPWVTLSVQGFADSPVSWEKNEHGFRKGGEHLYNFVIFNNQDYWLQMAVGANDHCPP [RPP40]”, the “solubility change mitosis (log2)” value in data set [1] is -0.00249. Further, the melting temperature in data set [2] (cell cycle stage: G1/S) was 55.5 °C; in data set [2] (cell cycle stage: mitosis), 56.5 °C. Further, the thermal stability score was -1.89 in data set [3] (setting [5]) and -4.46 in data set [3] (cell cycle stage: mitosis). For the same substance, in data set [4], the “solubility in G1/S (log2)” value was -0.386.
With “MSSSPVKRQRMESALDQLKQFTTVVADTGDFHAIDEYKPQDATTNPSLILAAAQMPAYQELVEEAIAYGRKLGGSQEDQIKNAIDKLFVLFGAEILKKIPGRVSTEVDARLSFDKDAMVARARRLIELYKEAGISKDRILIKLSSTWEGIQAGKELEEQHGIHCNMTLLFSFAQAVACAEAGVTLISPFVGRILDWHVANTDKKSYEPLEDPGVKSVTKIYNYYKKFSYKTIVMGASFRNTGEIKALAGCDFLTISPKLLGELLQDNAKLVPVLSAKAAQASDLEKIHLDEKSFRWLHNEDQMAVEKLSDGIRKFAADAVKLERMLTERMFNAENGK [TALDO1]”, the “solubility change mitosis (log2)” value in data set [1] was -0.00294. The results for the melting temperature in data set [2] (cell cycle stage: G1/S) and in data set [2] (cell cycle stage: mitosis) were 54.4 °C and 52.5 °C, respectively. Further, the thermal stability score in data set [3] (setting [5]) is -7.63; in data set [3] (cell cycle stage: mitosis) it was -3.31. In addition, the “solubility in G1/S (log2)” value in data set [4] is 0.572.
For “MPAGRAARTCALLALCLLGAGAQDFGPTRFICTSVPVDADMCAASVAAGGAEELRSSVLQLRETVLQQKETILSQKETIRELTAKLGRCESQSTLDPGAGEARAGGGRKQPGSGKNTMGDLSRTPAAETLSQLGQTLQSLKTRLENLEQYSRLNSSSQTNSLKDLLQSKIDELERQVLSRVNTLEEGKGGPRNDTEERVKIETALTSLHQRISELEKGQKDNRPGDKFQLTFPLRTNYMYAKVKKSLPEMYAFTVCMWLKSSATPGVGTPFSYAVPGQANELVLIEWGNNPMEILINDKVAKLPFVINDGKWHHICVTWTTRDGVWEAYQDGTQGGSGENLAPYHPIKPQGVLVLGQEQDTLGGGFDATQAFVGELAHFNIWDRKLTPGEVYNLATCSTKALSGNVIAWAESHIEIYGGATKWTFEACRQIN [NPTX1]”, in data set [1], the “solubility change mitosis (log2)” value is -0.119. Moreover, the melting temperature in data set [2] (cell cycle stage: G1/S) turned out to be 54 °C; in data set [2] (cell cycle stage: mitosis), 55.4 °C. Besides, the thermal stability score was 3.28 in data set [3] (setting [5]) and 3.79 in data set [3] (cell cycle stage: mitosis). Moreover, the “solubility in G1/S (log2)” value in data set [4] amounted to 0.224.
In the case of VWA8, the “solubility change mitosis (log2)” value in data set [1] was -0.0997. The results for the melting temperature in data set [2] (cell cycle stage: G1/S) and in data set [2] (cell cycle stage: mitosis) were 50.3 °C and 50.4 °C, respectively. The results for the thermal stability score in data set [3] (setting [5]) and in data set [3] (cell cycle stage: mitosis) were 1.66 and 1.12, respectively. In addition, in data set [4], the “solubility in G1/S (log2)” value was -0.224.
For “MDMGNQHPSISRLQEIQKEVKSVEQQVIGFSGLSDDKNYKKLERILTKQLFEIDSVDTEGKGDIQQARKRAAQETERLLKELEQNANHPHRIEIQNIFEEAQSLVREKIVPFYNGGNCVTDEFEEGIQDIILRLTHVKTGGKISLRKARYHTLTKICAVQEIIEDCMKKQPSLPLSEDAHPSVAKINFVMCEVNKARGVLIALLMGVNNNETCRHLSCVLSGLIADLDALDVCGRTEIRNYRREVVEDINKLLKYLDLEEEADTTKAFDLRQNHSILKIEKVLKRMREIKNELLQAQNPSELYLSSKTELQGLIGQLDEVSLEKNPCIREARRRAVIEVQTLITYIDLKEALEKRKLFACEEHPSHKAVWNVLGNLSEIQGEVLSFDGNRTDKNYIRLEELLTKQLLALDAVDPQGEEKCKAARKQAVRLAQNILSYLDLKSDEWEY [BAG5]”, the “solubility change mitosis (log2)” value in data set [1] is -0.166. Also, the melting temperature stood at 49.6 °C in data set [2] (cell cycle stage: G1/S) and 50.4 °C in data set [2] (cell cycle stage: mitosis). Also, the thermal stability score in data set [3] (setting [5]) is 1.27; in data set [3] (cell cycle stage: mitosis) it was 1.14. Moreover, the “solubility in G1/S (log2)” value in data set [4] came out at 0.621.
For “MRPGAPGPLWPLPWGALAWAVGFVSSMGSGNPAPGGVCWLQQGQEATCSLVLQTDVTRAECCASGNIDTAWSNLTHPGNKINLLGFLGLVHCLPCKDSCDGVECGPGKACRMLGGRPRCECAPDCSGLPARLQVCGSDGATYRDECELRAARCRGHPDLSVMYRGRCRKSCEHVVCPRPQSCVVDQTGSAHCVVCRAAPCPVPSSPGQELCGNNNVTYISSCHMRQATCFLGRSIGVRHAGSCAGTPEEPPGGESAEEEENFV [FSTL3]”, in data set [1], the “solubility change mitosis (log2)” value is 0.0887. Moreover, the values for the melting temperature in data set [2] (cell cycle stage: G1/S) and in data set [2] (cell cycle stage: mitosis) were 51.7 °C and 54.8 °C, respectively. Besides, the figures for the thermal stability score in data set [3] (setting [5]) and in data set [3] (cell cycle stage: mitosis) were 2.88 and 2.67, respectively. The “solubility in G1/S (log2)” value in data set [4] was -0.141.
Turning to “MDGTRTSLDIEEYSDTEVQKNQVLTLEEWQDKWVNGKTAFHQEQGHQLLKKHLDTFLKGKSGLRVFFPLCGKAVEMKWFADRGHSVVGVEISELGIQEFFTEQNLSYSEEPITEIPGTKVFKSSSGNISLYCCSIFDLPRTNIGKFDMIWDRGALVAINPGDRKCYADTMFSLLGKKFQYLLCVLSYDPTKHPGPPFYVPHAEIERLFGKICNIRCLEKVDAFEERHKSWGIDCLFEKLYLLTEK [TPMT]”, in data set [1], the “solubility change mitosis (log2)” value is -0.18. For the same substance, the melting temperature in data set [2] (cell cycle stage: G1/S) and in data set [2] (cell cycle stage: mitosis) was 54 °C in each case. Besides, the thermal stability score in data set [3] (setting [5]) was -0.85; in data set [3] (cell cycle stage: mitosis), -0.417. Also, in data set [4], the “solubility in G1/S (log2)” value is 0.0374.
In the case of “MPRIMIKGGVWRNTEDEILKAAVMKYGKNQWSRIASLLHRKSAKQCKARWYEWLDPSIKKTEWSREEEEKLLHLAKLMPTQWRTIAPIIGRTAAQCLEHYEFLLDKAAQRDNEEETTDDPRKLKPGEIDPNPETKPARPDPIDMDEDELEMLSEARARLANTQGKKAKRKAREKQLEEARRLAALQKRRELRAAGIEIQKKRKRKRGVDYNAEIPFEKKPALGFYDTSEENYQALDADFRKLRQQDLDGELRSEKEGRDRKKDKQHLKRKKESDLPSAILQTSGVSEFTKKRSKLVLPAPQISDAELQEVVKVGQASEIARQTAEESGITNSASSTLLSEYNVTNNSVALRTPRTPASQDRILQEAQNLMALTNVDTPLKGGLNTPLHESDFSGVTPQRQVVQTPNTVLSTPFRTPSNGAEGLTPRSGTTPKPVINSTPGRTPLRDKLNINPEDGMADYSDPSYVKQMERESREHLRLGLLGLPAPKNDFEIVLPENAEKELEEREIDDTYIEDAADVDARKQAIRDAERVKEMKRMHKAVQKDLPRPSEVNETILRPLNVEPPLTDLQKSEELIKKEMITMLHYDLLHHPYEPSGNKKGKTVGFGTNNSEHITYLEHNPYEKFSKEELKKAQDVLVQEMEVVKQGMSHGELSSEAYNQVWEECYSQVLYLPGQSRYTRANLASKKDRIESLEKRLEINRGHMTTEAKRAAKMEKKMKILLGGYQSRAMGLMKQLNDLWDQIEQAHLELRTFEELKKHEDSAIPRRLECLKEDVQRQQEREKELQHRYADLLLEKETLKSKF [CDC5L]”, the “solubility change mitosis (log2)” value in data set [1] was found to be 0.483. The figures for the melting temperature in data set [2] (cell cycle stage: G1/S) and in data set [2] (cell cycle stage: mitosis) were 47.5 °C and 48.7 °C, respectively. In addition, the thermal stability score is 3.11 in data set [3] (setting [5]) and 6.1 in data set [3] (cell cycle stage: mitosis). Further, in data set [4], the “solubility in G1/S (log2)” value is -0.778.
